From paper PMC3458741, “Studies on the substrate specificity of a GDP-mannose pyrophosphorylase from Salmonella enterica” (Beilstein Journal of Organic Chemistry, 2012)

Columns and labels:
Assay in all cases: purified protein
Conditions in all cases: co-substrate GTP
[1] = test system: COC[C@H]1O[C@H](OP(=O)(O)O)[C@@H](O)[C@@H](O)[C@@H]1O
From the text: (§1) colorimetric pyrophosphate detection assay on GDP-mannose pyrophosphorylase (GDP-ManPP)

[2] = test system: CO[C@@H]1[C@@H](OP(=O)(O)O)O[C@H](CO)[C@@H](O)[C@@H]1O
From the text: as §1

[3] = test system: CO[C@@H]1[C@H](O)[C@@H](OP(=O)(O)O)O[C@H](CO)[C@H]1O
From the text: as §1

[4] = test system: CO[C@H]1[C@H](O)[C@H](O)[C@@H](OP(=O)(O)O)O[C@@H]1CO
From the text: as §1

[5] = test system: C[C@H]1O[C@H](OP(=O)(O)O)[C@@H](O)[C@@H](O)[C@@H]1O
From the text: as §1

[6] = test system: O=P(O)(O)O[C@H]1O[C@H](CO)[C@@H](O)[C@H](O)[C@@H]1O
From the text: as §1

GDP-mannose pyrophosphorylase (GDP-ManPP) (Salmonella enterica subsp. enterica serovar Typhimurium str. LT2)
Km [1]: 120 ± 18 µM
kcat [1]: 0.45 ± 0.0167 s⁻¹
kcat/Km [1]: 3830 ± 1000 M⁻¹ s⁻¹
Km [2]: 4000 ± 1100 µM
kcat [2]: 1.17 ± 0.183 s⁻¹
kcat/Km [2]: 333 ± 167 M⁻¹ s⁻¹
Km [3]: 200 ± 72 µM
kcat [3]: 0.0867 ± 0.0117 s⁻¹
kcat/Km [3]: 433 ± 16.7 M⁻¹ s⁻¹
Km [4]: 3400 ± 870 µM
kcat [4]: 0.517 ± 0.0783 s⁻¹
kcat/Km [4]: 150 ± 83.3 M⁻¹ s⁻¹
Km [5]: 70 ± 13 µM
kcat [5]: 5 ± 0.217 s⁻¹
kcat/Km [5]: 66700 ± 16700 M⁻¹ s⁻¹
Km [6]: 40 ± 6 µM
kcat [6]: 6 ± 0.267 s⁻¹
kcat/Km [6]: 150000 ± 50000 M⁻¹ s⁻¹
